Source: a protein production outcome set (Wang et al. 2014)

Experiment: label from the status in PepcDB records

Sequence	protein production
MSSSDGKLRYDGRVAVVTGAGAGLGREYALLFAERGAKVVVNDLGGTHSGDGASQRAADIVVDEIRKAGGEAVADYNSVIDGAKVIETAIKAFGRVDILVNNAGILRDRSLVKTSEQDWNLVNDVHLKGSFKCTQAAFPYMKKQNYGRIIMTSSNSGIYGNFGQVNYTAAKMGLIGLANTVAIEGARNNVLCNVIVPTAASRMTEGILPDILFNELKPKLIAPVVAYLCHESCEDNGSYIESAAGWATKLHMVRGKGAVLRPSLDDPVTIEYVKDVWSNVTDMSKAKHLGAIAEASGTLLEVLEKLKEGGGDAIEDAFEFNSKELITYALGIGASVKNAKDMRFLYENDADFAAIPTFFVLPGLLLQMSTDKLLSKALPNSQVDFSNILHGEQYLEIVDDLPTSGTLLTNGKVFDVMDKGSGAVVVTNSESFDESGRLLVRNQSTTFIVGAGKFGGKKDPIAGVVPLQPAPNRQPDATVQYTTSEDQAALYRLSGDKNPLHIDPQMALLAGFKTPILHGLCTLGFSVRAVLAQFADNNPALFKAVKVRFSGPVIPGQTLRVDLWKQGTRINFRTVVVETGKEVISGAYVDLKSSQAKL	failed
MSSSDIFIGETIGTAVLILLGGGVCAAVTLKASKARNAGWLAITFGWGFAVLTAVYISAPLSGAHLNPAVTLALAIKDNDWSNVPTYWAGQLLGAMIGAALVWVAYYGQFHAHLTDHEIVGGPGAQATKTKAVEAQETGAGPVLGVFSTGPEVRNVVQNLATEIIGTVVLVLAILTQGLNDNGNGLGTIGALITSLVVVSIGLSLGGPTGYAINPARDLGPRIVHALLPLPNKGGSDWSYAWIPVVGPLIGAAIAAGIYNVAFA	failed
MSSSIEIFPDSDILVAAAGKRLVGAIGAAVAARGQALIVLTGGGNGIALLRYLSAQAQQIEWSKVHLFWGDERYVPEDDDERNLKQARRALLNHVDIPSNQVHPMAASDGDFGGDLDAAALAYEQVLAASAAPGDPAPNFDVHLLGMGPEGHINSLFPHSPAVLESTRMVVAVDDSPKPPPRRITLTLPAIQRSREVWLLVSGPGKADAVAAAIGGADPVSVPAAGAVGRQNTLWLLDRDAAAKLPS	not failed
MSSSLDLAPELSVASTHPASTLAGHQPDLVLSPRLHNRDLAPTRMEGRRWGGYSIFALWTNDVHNIANYSFAMGLFALGLGGWQILLSLAIGAALVYFFMNLSGYMGQKTGVPFPVISRIAFGIHGAQIPALIRAVIAIAWFGIQTYLASVVLRVLLTAVWPQIAAYDHDSILGLSSLGWVCFVSIWLVQLVILAYGMEMVRRYEAFAGPVILLTVAALAVFMYFKADARIAWSVATPLTGYEMWRNIFAGGALWLAIYGTLVLNFCDFARSSPCRKTIRVGNFWGLPVNILVFAVITVVLCGAQFQINGQIIDSPTQIVAAIPSTPFLVLGCLAFLIVTVAVNIMANFVAPAFVLSNLAPRHLNFRRAGLISATLAVLILPWNLYNSPLVIVYFLSGLGALLGPLYGVIMSDYWLLRKGCINVPELYTEHPAGAYHYSKGINLRAVAAFVPAALLAIVLALVPNFQGIAPFSWLIGAGIAAALYLLIAPRNRHYHDVSGECIAVDHSGH	failed
MSSSPEKKRRKKLSPESNSLPNDLIVTILARLSQSYYPKLSLVSKTFRAILASPELYQTRILLSRTETFLYVCLSFPGEPNPGWFTLYRKPNQTLTTKKKKNSVHLLAPILNSPPVEFPSLIAVGSYLYAFRAAIEEGTSDSLNCVEVYNTDTQTWIPVPPNKRIFKLQHMKGMLYMKVSKLLSFVAQDAEELAPLFPKLRSLLSTEVVAFKPKVSEGYEVLGFSVNTDLGRGSFCMIEEITYHYDPSVKFRWRRRQGGVWRSLVGLEGLPKFARYSSVKLADCGGKLVVLWHKYVPASGYEEKMVWCAEISLEKRSKKEIWGKIEWFDAVLRVPKYYQFVGAKSATV	failed
MSSSSPGEPLEPTDQDLDVLLKNLGNLVTPMALRVAATLRLVDHLLAGADTLAGLADRTDTHPQALSRLVRHLTVVGVLEGGEKQGRPLRPTRLGMLLADGHPAQQRAWLDLNGAVSHADLAFTGLLDVVRTGRPAYAGRYGRPFWEDLSADVALADSFDALMSCDEDLAYEAPADAYDWSAVRHVLDVGGGNGGMLAAIALRAPHLRGTLVELAGPAERARRRFADAGLADRVTVAEGDFFKPLPVTADVVLLSFVLLNWSDEDALTILRGCVRALEPGGRLLVLDRADVEGDGADRFFSTLLDLRMLTFMGGRVRTRDEVVDLAGSAGLALASERTSGSTTLPFDFSILEFTAVSEEAAPAAQASEALPAQE	not failed
MSSSSPSGSGSDLTERRGIPAAKFIQDVETYLSQSGLDPNSALAFHQERLQQYKVVEMKLLAQQRDLQAKIPDIEKCLEVVATLEAKKGTGEALLADFEVSEGIYSRACIEDTDSVCLWLGANVMLEYSCEEASALLKNNLENAKASLEVLVADLQFLRDQVTVTQVTIARVYNWDVHQRRVKQVTPTAIAVADS	failed
MSSTASSVFADETLLFEPATPIANAVPLIFAFPNEYSVGITSLGFQIVWATLAARSDLQVSRLFTDIAEPLPRQPELLGFSLSWELDYVNILAMLEQLGIPLRSRDRGDEHPLVFGGGPTLTANPEPFADFFDVILVGDGEVLLDAFIDAYQPLRDRPRAEKLRQLAQVPGLYIPALYEPIYEAADGAIATIQPIDNDIPVQIEKQTYRGNVLSASTVVTPRAAWESIYMVEVVRSCPEMCRFCLASYLTLPFRTASLEESLQPAIARGLTATQRIGLLGASVTQHPEFPALLDRLGQPEFTDVRLSVASVRTNTVTEKFASILAQRGTKSLTIAVESGSERLRQVINKKLAQAEITEAAVNAKAGGLQGLKLYGMAGVPTETEDDLLATAEMLKGLKKAAPGLRLSYGCSTFVPKAQTPFQWQGVSPKAEKRLQFLQKQLRPQGIEFRPESYSWSVIQALISRGDRRLSSLLERVRHYGESLGSYRRAFKELKGTLPPLDFYVFQDWEPEAPLPWQHLRGPLPVETLRKHRQQAFAIAAAGVGSK	failed
MSSTPATPAISPTQQSALALWRMRLITLLPLGAIAWISMVLADHPAIAHYGLSALTLAMGAGMVAANTMPKHWLAPLAPGMQFARHHLLRLGVALYGLRLTFGAIAALGVGGVVVPLTMLVATLLFGTWVGSSFFGLSRREAILVSAGSAVCGAAAAIAVSSVVRTDDRQTAVAVATVVLFGTVGMLLYPWLYELATQHWHLAISERSFGIFTGATLHEVAQVIASGKMVSDGAADAAVVAKMVRVLALGPLLLVMALWPRTSWSQASGGSRNLHGLLRSVPWFALGFVAVMALNSAQMVPADWKPALIGFDNWMLACAMLAIGLHTRIGDLLRAGRKPLALAGVLFLFLMVVGAALCALLV	failed
MSSTSFTDLLGSSGVDCYEDDEDLRVSGSSFGGYYPERTGSGLPKFKTAQPPPLPISQSSHNFTFSDYLDSPLLLSSSHSLISPTTGTFPLQGFNGTTNNHSDFPWQLQSQPSNASSALQETYGVQDHEKKQEMIPNEIATQNNNQSFGTERQIKIPAYMVSRNSNDGYGWRKYGQKQVKKSENPRSYFKCTYPDCVSKKIVETASDGQITEIIYKGGHNHPKPEFTKRPSQSSLPSSVNGRRLFNPASVVSEPHDQSENSSISFDYSDLEQKSFKSEYGEIDEEEEQPEMKRMKREGEDEGMSIEVSKGVKEPRVVVQTISDIDVLIDGFRWRKYGQKVVKGNTNPRSYYKCTFQGCGVKKQVERSAADERAVLTTYEGRHNHDIPTALRRS	failed
MSSWMMVPVVFLTAYSDPETIGRARRAGAYGYLLKPYDDRKLRAAVETALRRYRADVRDILKVHETAVRGPVPGVLIVEDEAIIAADLKQKLENAGFRVLGVHDTGEGAIAAASELEPDVVIMDVYIRGEMDGIKAAERIQERYGIPVIYLTAYSDDATLSRILESEPYGYLLKPLNTEQLQAEIEVVLENLRTTEDYSRRVREVLVTKAEEMKIEKTGIFFVSSVITALAVYGFITGSMTWLMYTLFIPTVYSLMHLAFSFGEPEKPSSSAMPMVSIIVPANNEENTIEGCVETLSALDYHVNGERNYEIIVVNDGSTDRTGEILEGLLRKHRHLKAVTRKAPFAFNGRVMPSMMVSPLPRGIL	failed
MSSWRKPGPIPRDLSVEIDSSTERRIIAKLLPGVMGPGFRQDDAGEAAMSDPSAHWNNVYATKGETEVSWFQESPAISLDMIRSANVDRGAGIIDIGGGASRLVDALLQDGYRNLAVLDLSANALDAAKRRIGPAAASVDWIVADATTWRPARSYEVWHDRAAFHFLTDPRDRAAYVERLRSAVAAGGHVIIATFALDGPEKCSGLPVQRHDSKSLSTELGPDFELIETRSETHHTPWKSTQAFQFSRFRRRGS	failed
MSSYSNELLMLIFRSMLCKQVLIFFAYSGLYYLVTYFMDKKIQHQKQFLLKLGLVKLKKRNKTRWEKIRWRMQLCLIVSILVLVVSTFVLNPDDQYILLVIYVMKLATFTSFAIAFVDSLGPIKEIQQLIVGAQSSDTLDSDKKVLTVTIFKKIRWMLILYQVLKVPALIIILTLSVDY	failed
MSTAAETTGGDIEPWEEVTPDAARRLLVAAVEAFAERGYHATTTRDIAGRAGMSPAALYIHYKTKEELLHRISRIGHTRAVAILRSAAQGEGSAAERLADAVSSFVRWHAGRRTTARVVQYELDALGPEAREEILTLRRQCDAAVRGIIDDGVAAGEFDVPDVKGTTLAVLSLCIDVARWFNVNGPRTPDEVGALYADLVLRMVGAEPSGATAQR	not failed
MSTDIDCIVIGAGVVGLAIARALAAGGHEVLVAEAAEGIGTGTSSRNSEVIHAGIYYPADSLKARLCVRGKHLLYEYCAARGVPHQRLGKLIVATSDAEASQLDSIARRAGANGVDDLQHIDGAAARRLEPALHCTAALVSPSTGIVDSHALMLAYQGDAESDGAQLVFHTPLIAGRVRPEGGFELDFGGAEPMTLSCRVLINAAGLHAPGLARRIEGIPRDSIPPEYLCKGSYFTLAGRAPFSRLIYPVPQHAGLGVHLTLDLGGQAKFGPDTEWIATEDYTLDPRRADVFYAAVRSYWPALPDGALAPGYTGIRPKISGPHEPAADFAIAGPASHGVAGLVNLYGIESPGLTASLAIAEETLARLAALEHHHHHH	not failed
MSTDNLLQPKLIEATLGDYPVIQNMARFYVYDMSRYCGFISEEWTCPPDGLYESYDFKIYFTDPERKAFLIQIDNELAGFALLNKFGIQAVDWSMGEFFILAKFQGKGIGQSVAHQLWRTHPGEWEISVIPENIPALSFWRQAVMTYTL	not failed
MSTDSVRSSTTGGSASGARTFCSLADLSTKKCVPCNAKDLRAMTEQSAQDLLQKVAGWDLANDNDTLKLHRSWRVKSFTKGLDFFQRVADIAESEGHHPDLHLVGWNNVKIEIWTHAIGGLTENDFILAAKINELQVEDLLRKKKVAK	failed
MSTDTSGVGVREIDAGALPTRYARGWHCLGVAKDYLEGKPHGVEAFGTKLVVFADSHGDLKVLDGYCRHMGGDLSEGTVKGDEVACPFHDWRWGGDGRCKLVPYARRTPRMARTRSWTTDVRSGLLFVWHDHEGNPPDPAVRIPEIPEAASDEWTDWRWNRILIEGSNCRDIIDNVTDMAHFFYIHFGLPTYFKNVFEGHIASQYLHNVGRPDVDDLGTSYGEAHLDSEASYFGPSFMINWLHNRYGNYKSESILINCHYPVTQNSFVLQWGVIVEKPKGMSEEMTDKLSRVFTEGVSKGFLQDVEIWKHKTRIDNPLLVEEDGAVYQLRRWYEQFYVDVADIKPEMVERFEIEVDTKRANEFWNAEVEKNLKSREVSDDVPAEQH	not failed
MSTFAFNLGGEFDKSFLSTPKAYGDVIKALPQNASKIELDYASVYDYDTDGCYATAAISPDGTTNPGLSLGGSPESVCRDVNRLENSNTYSRAKSNNGWTAIMYASYFEKDQSTSGPVALGHRHDWEHTIVWVKDSQVQYVTYSAHGNWYTNPRSNVRFDGNHPKIVYHKDGGSTHAFRLANSNDEPPENYYHQWLQLPMVGWNGYPSPNIREKLMTTNFGDATLEIKDGRFEKALANAKPPINFDPYAPELEDGGTYQIVSILNNSSVVDLNQADGNVQLWQNGNANNQKWKLVYDSNKSAYQIKNIANQNLVLTWNNLNGSNNVVATTNQNKEEQYWIPTEAGNGYYYVRNKKDQNKVLDVSGYGTANGTNVTVYNFHGGNNQTFQLSNVTGTLTREVESLYKAQPGQTSRSSNNFSLEHLAAGTKVRVVLEGAGATSLSFKIARDKSGTDPVIWSNVRDGSILTIPSGDDRKNLYIAGPPSGYTSNGTFKVKFYALPN	failed
